Measurements taken from patent US20090203538A1 (INSTITUTE FOR ANTIBODIES, published 2009).
Changes are numbered by the printed parent chain.

T1: ALCAM (Activated leukocyte cell adhesion molecule) (Homo sapiens (Human), UniProt Q13740 28-583)
T1 construct: Native protein on cancer cell lines; also called CD166 antigen; CD166
T1 sequence: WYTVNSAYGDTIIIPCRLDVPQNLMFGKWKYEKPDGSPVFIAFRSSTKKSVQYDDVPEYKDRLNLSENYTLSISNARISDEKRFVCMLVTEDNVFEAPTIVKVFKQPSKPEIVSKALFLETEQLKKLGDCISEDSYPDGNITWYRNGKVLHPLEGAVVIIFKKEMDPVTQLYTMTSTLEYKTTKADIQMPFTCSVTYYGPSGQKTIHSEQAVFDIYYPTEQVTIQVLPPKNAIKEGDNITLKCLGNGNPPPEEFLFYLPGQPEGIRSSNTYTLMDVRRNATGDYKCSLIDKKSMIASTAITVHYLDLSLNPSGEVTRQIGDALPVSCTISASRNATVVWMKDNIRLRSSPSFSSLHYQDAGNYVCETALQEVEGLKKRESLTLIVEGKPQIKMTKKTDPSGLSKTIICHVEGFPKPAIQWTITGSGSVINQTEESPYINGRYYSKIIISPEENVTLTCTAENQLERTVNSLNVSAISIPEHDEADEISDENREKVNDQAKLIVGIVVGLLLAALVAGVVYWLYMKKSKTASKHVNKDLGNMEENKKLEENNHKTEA

B1: 065-358 antibody (antibody, V domains shown)
VH: EVQLVESGGGLVQPGGSLRLSCAASGFTFSSYSMNWVRQAPGKGLEWVSYISSSSSTIYYADSVKGRFTISRDNAKNSLYLQMNSLRDEDTAVYYCARDNLEGLDYWGQGTLVTVSR
VL: SYVLTQPPSVSVAPGKTARITCGGNNIGSKSVHWYQQKPGQAPVLVIYYDSDRPSGIPERFSGSNSGNTATLTISRVEAGDEADYYCQVWDSSSDHVVFGGGTKLTVLG
notes: Clone of the scFv-CL-cp3 phage library
B2: 079-085 antibody (antibody, V domains shown)
VH: EVQLVESGGGLVQPGGSLRLSCAASGFTFSSYSMNWVRQAPGKGLEWVSYISSSSSTIYYADSVKGRFTISRDNAKNSLYLQMNSLRDEDTAVYYCAREGPRGSYYYFDYWGQGTLVTVSR
VL: NFMLTQPHSVSESPGKTVTISCTRSSGSIASNYVQWYQQRPGSAPTTVIYEDNQRPSGVPDRFSGSIDSSSNSASLTISGLKTEDEADYYCQSYDSSNWVFGGGTKLTVLG
notes: as for B1
B3: 064-044 antibody (antibody, V domains shown)
VH: QVQLVQSGAEVKKPGASVKVSCKVSGYTLTELSMHWVRQAPGKGLEWMGGFDPEDGETIYAQKFQGRVTMTEDTSTDTAYMELSSLRSEDTAVYYCATDLDYYGSGSYAFDIWGQGTTVTVSR
VL: QSALTQPASVSGSPGQSITISCTGTSSDVGSYNLVSWYQQHPGKAPKLMIYEGSKRPSGVSNRFSGSKSGNTASLTISGLQAEDEADYYCSSYTSSSTWVFGGGTKLTVLG
notes: as for B1
B4: 065-030 antibody (antibody, V domains shown)
VH: QVQLQQWGAGLLKPSETLSLTCAAYGGSFSGYYWSWIRQPPGKGLEWIGEINHSGSTNYNPSLKSRVTISVDTSKNQFSLKLSSVTAADTAVYYCARTYYGSGSYQYNWFDPWGQGTLVTVSR
VL: QSVLTQPPSVSGAPGQRVTISCTGSSSNIGAGYDVHWYQQLPGTAPKLLIYGNSNRPSGVPDRFSGSKSGTSASLAITGLQAEDEADYYCQSYDSSLSGVVFGGGTKLTVLG
notes: as for B1
B5: 066-019 antibody (antibody, V domains shown)
VH: QVQLQESGPGLVKPSQTLSLTCTVSGGSISSGDYYWSWIRQPPGKGLEWIGYIYYSGSTYYNPSLKSRVTISVDTSKNQFSLKLSSVTAADTAVYYCARGTGDLEWFDPWGQGTLVTVSR
VL: QSVLTQPPSVSGAPRQTVTISCSGSSSNIGQNSVTWYQRLPGEAPKLLIYYDDLLHSGVSDRFSGSKSGTSASLAISGLQSEDEAEYYCASWDDSLKGPVFGGGTKLTVLG
notes: as for B1
B6: 084-103 antibody (antibody, V domains shown)
VH: QVQLVQSGAEVKKPGSSVKVSCKASGGTFSSYAISWVRQAPGQGLEWMGWMNPNSGNTGYAQKFQGRVTMTRNTSISTAYMELSSLRSEDTAVYYCARDVGIGVFDYWGQGTLVTVSR
VL: B1 VL
notes: as for B1
B7: 083-131 antibody (antibody, V domains shown)
VH: EVQLVESGGGVVQPGRSLRLSCAASGFTFDDYAMHWVRQAPGKGLEWVSGISWNSGSIGYADSVKGRFTISRDNAKNSLYLQMNSLRAEDTAVYYCATEEWWRFDLWGRGTLVTVSR
VL: QSALTQPPSASGSPGQSVTISCTGTSSDVDDYNYVSWYQQHPGKAPKLMIYEVTKRPSGVPDRFSGSKSGNTASLTISGLQAEDEADYYCSSYVGSDNRVFGTGTKVTVPG
notes: as for B1
B8: 029-143 antibody (antibody, V domains shown)
VH: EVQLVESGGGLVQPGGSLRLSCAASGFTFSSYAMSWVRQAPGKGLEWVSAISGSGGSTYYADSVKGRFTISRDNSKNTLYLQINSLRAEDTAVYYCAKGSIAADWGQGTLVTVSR
VL: SSELTQDPAVSVALGQTVRITCQGDSLRSYYASWYQQKPGQAPVLVIYGKNNRPSGIPDRFSGSSSGNTASLTITGAQAEDEADYYCNSRDSSGNVVFGGGTKLTVLG
notes: as for B1
B9: 062-109 antibody (antibody, V domains shown)
VH: QVQLVQSGAEVKKPGASVKVSCKASGYTFTSYGISWVRQAPGQGLEWMGWISAYNGNTNYAQKLQGRVTMTTDTSTSTAYMELRSLRSDDTAVYYCARVGYYYYYGMDVWGQGTTVTVSR
VL: B3 VL
B10: 045-134 antibody (antibody, V domains shown)
VH: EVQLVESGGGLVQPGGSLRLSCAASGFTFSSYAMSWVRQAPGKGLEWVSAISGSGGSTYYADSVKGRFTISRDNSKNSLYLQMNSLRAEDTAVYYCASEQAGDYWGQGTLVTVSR
VL: QSVLTQPPSASGTPGQRVTISCSGSSSNIGSNYVYWYQQLPGTAPKLLIYRNNQRPSGVPDRFAGSKSGTSATLGITGLQTGDEADYYCGTWDSSLSAGVFGGGTKLTVLG
notes: as for B1
B11: 029-067 antibody (antibody, V domains shown)
VH: QVQLQQSGAEVKKPGASVKVSCKASGYTFTTYYMHWVRQAPGQGLEWMGIINPSGENTNYAQKFQGRVTMTRDTSTTTVYMELSSLRSEDTAVYYCARSFIGTRGGGLDVWGQGTTVTVSR
VL: QSVLTQPPSVSGAPGQRVNISCAGSSSNIGAGYDVHWYQQIPGTAPKLLMYGNSNRPSGVPDRFSGSKSGASASLAITRLQAEDEADYYCQSYDSSLSGSRVFGTGTKVTVLG
notes: as for B1
B12: 062-101 antibody (antibody, V domains shown)
VH: QVQLVQSGAEVKKPGASVKVSCKASGYTFTSYYMHWVRQAPGQGLEWMGIINPSGGSTSYAQKFQGRVTMTRDTSTSTVYMELSSLRSEDTAVYYCARELSAATAFDIWGQGTMVTVSR
VL: ETTLTQSPFSVSASVGDRVTITCRASQYISRWLAWYQQRPGKAPKLLIYAAASLQSGVPSRFSGSGSGTDFTLTISSLQPEDFATYYCQQANSFPVTFGQGTRLEIK
notes: as for B1
B13: 086-032 antibody (antibody, V domains shown)
VH: QVQLVQSGSEVKKPGASVKVSCKTSGYIFTDYYMHWVRQAPGKGLEWMGWINPNSGGTYYAQKFHGRVTMTSDTSISTAYMELSSLRSDDTAIYYCAREDYDILTGYYPASGHGDYWGQGTLVTVSR
VL: QAVVTQEPSLTVSPGGTVTLTCASSTGAVTSGFLANWFQQKPGQTPRSLIYKTSNKHPWTPARFSGSLLGGKAALTLSGVQPEDEADYYCLLLSGGAWVFGGGTKLSVLG
notes: as for B1
B14: 086-138 antibody (antibody, V domains shown)
VH: B13 VH with Y107F
VL: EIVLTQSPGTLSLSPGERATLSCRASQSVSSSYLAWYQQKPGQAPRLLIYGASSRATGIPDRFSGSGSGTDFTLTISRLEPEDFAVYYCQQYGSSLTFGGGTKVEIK
notes: as for B1
B15: 086-035 antibody (antibody, V domains shown)
VH: QVQLVQSGAEVKKPGESLKISCEGSGYTFTSYWIGWVRQMPGKDLEWMGIIYPGDSDTRYSPSFQGQVTISVDKSISTAYLQWSSLKASDTAMYYCARHDVVDGYNTGMDVWGQGTTVTVSR
VL: QTVVTQEPSFTVSPGGTVTLTCGLSSGSVSTSYYPSWYQQTPGQAPRTLISSTNTRSSGVPDRFSGSILGNRAALTITGAQADDESDYYCVLYMGSGIWVFGGGTKLTVLG
notes: as for B1
B16: 086-182 antibody (antibody, V domains shown)
VH: QVQLVQSGAEVKKPGESLKISCKGSGYSFTSYWIGWVRQMPGKGLEWMGIIYPGDSDTRYSPSFQGQVTISADKSISTAYLQWSSLKASDTAMYYCARHGMTSGYVAHNDYWGQGTLVTVSR
VL: B15 VL with T11S, S51Y, R72K
notes: as for B1
B17: 086-036 antibody (antibody, V domains shown)
VH: QVQLVQSGAEVKKPGESLKISCKGSGYSFTSYWIGWVRQMPGKGLEWMGIIYPGDSDARYSPSFQGQVTISADKSISTAYLQWSSLKASDTAMYYCARLTGSSYYDSSGYSSYGMDVWGQGTTVTVSR
VL: B15 VL with T11S, Y38F, S51Y, R72K, W99S, K106Q
notes: as for B1
B18: 075-024 antibody (antibody, V domains shown)
VH: QVQLVQSGAEVKKPGASVKVSCKASGYTFTSYGISWVRQAPGQGLEWMGWISAYNGNTNYAQKLQGRVTMTTDTSTSTAYMELRSLRSDDTAVYYCARGGAFDIWGQGTTVTVSR
VL: B4 VL with D34H, H36Y, T44K, G52V, E83D, V100R
notes: as for B1
B19: 067-126 antibody (antibody, V domains shown)
VH: QVQLQESGPGLVKPSGTLSLTCAVSGGSISSSNWWSWVRQPPGKGLEWIGEIYHSGSTNYNPSLKSRVTISVDKSKNQFSLKLSSVTAADTAVYYCARGGSYYFDYWGQGTLVTVSR
VL: QSALTQPASVSGSPGQSITISCTGTISDVGGYDFVSWYQHHPGKAPKLLIYDVNNRPSGVSHRFSGSKSGNTASLTISGLQAEDEATYYCSSYSNRHSLIVFGSGTQVVGLG
notes: as for B1
B20: 067-133 antibody (antibody, V domains shown)
VH: QVQLQQWGAGLLKPSETLSLTCAVYGGSFSGYYWSWIRQPPGKGLEWIGEINHSGSTNYNPSLKSRVTISVDTSKNQFSLKLSSVTAADTAVYYCARGGGVEALNYGMDVWGQGTTVTVSR
VL: B19 VL with S17T
notes: as for B1

Molecular target: T2, LAR (Leukocyte common Antigen-Related) (Homo sapiens (Human), UniProt P10586 30-1907, limits assumed)
T2 construct: also called PTP-LAR; protein tyrosine phosphatase receptor type F (PTPRF)
Assay: antigen assigned by the filing's classifying and identification method; details for this clone not given

Row | Binder | binding result
1 | B1 | binds
2 | B2 | binds
3 | B3 | binds
4 | B4 | binds
5 | B5 | binds

Molecular target: T1, ALCAM (Activated leukocyte cell …)
Assay: as above

Row | Binder | binding result
6 | B6 | binds
7 | B7 | binds
8 | B8 | binds
9 | B9 | binds
10 | B10 | binds
11 | B11 | binds
12 | B12 | binds

Molecular target: T3, HER2 (Homo sapiens (Human), UniProt P04626 23-1255)
T3 construct: Native protein on cancer cell lines; also called erbB-2; ErbB2
Assay: as above

Row | Binder | binding result
13 | B13 | binds
14 | B14 | binds
15 | B15 | binds
16 | B16 | binds
17 | B17 | binds
18 | B18 | binds

Molecular target: T4, HGFR (Hepatocyte growth factor receptor) (Homo sapiens (Human), UniProt P08581 25-1390)
T4 construct: also called Met
Assay: as above

T4 sequence (P08581 25-1390 L1272V limits assumed): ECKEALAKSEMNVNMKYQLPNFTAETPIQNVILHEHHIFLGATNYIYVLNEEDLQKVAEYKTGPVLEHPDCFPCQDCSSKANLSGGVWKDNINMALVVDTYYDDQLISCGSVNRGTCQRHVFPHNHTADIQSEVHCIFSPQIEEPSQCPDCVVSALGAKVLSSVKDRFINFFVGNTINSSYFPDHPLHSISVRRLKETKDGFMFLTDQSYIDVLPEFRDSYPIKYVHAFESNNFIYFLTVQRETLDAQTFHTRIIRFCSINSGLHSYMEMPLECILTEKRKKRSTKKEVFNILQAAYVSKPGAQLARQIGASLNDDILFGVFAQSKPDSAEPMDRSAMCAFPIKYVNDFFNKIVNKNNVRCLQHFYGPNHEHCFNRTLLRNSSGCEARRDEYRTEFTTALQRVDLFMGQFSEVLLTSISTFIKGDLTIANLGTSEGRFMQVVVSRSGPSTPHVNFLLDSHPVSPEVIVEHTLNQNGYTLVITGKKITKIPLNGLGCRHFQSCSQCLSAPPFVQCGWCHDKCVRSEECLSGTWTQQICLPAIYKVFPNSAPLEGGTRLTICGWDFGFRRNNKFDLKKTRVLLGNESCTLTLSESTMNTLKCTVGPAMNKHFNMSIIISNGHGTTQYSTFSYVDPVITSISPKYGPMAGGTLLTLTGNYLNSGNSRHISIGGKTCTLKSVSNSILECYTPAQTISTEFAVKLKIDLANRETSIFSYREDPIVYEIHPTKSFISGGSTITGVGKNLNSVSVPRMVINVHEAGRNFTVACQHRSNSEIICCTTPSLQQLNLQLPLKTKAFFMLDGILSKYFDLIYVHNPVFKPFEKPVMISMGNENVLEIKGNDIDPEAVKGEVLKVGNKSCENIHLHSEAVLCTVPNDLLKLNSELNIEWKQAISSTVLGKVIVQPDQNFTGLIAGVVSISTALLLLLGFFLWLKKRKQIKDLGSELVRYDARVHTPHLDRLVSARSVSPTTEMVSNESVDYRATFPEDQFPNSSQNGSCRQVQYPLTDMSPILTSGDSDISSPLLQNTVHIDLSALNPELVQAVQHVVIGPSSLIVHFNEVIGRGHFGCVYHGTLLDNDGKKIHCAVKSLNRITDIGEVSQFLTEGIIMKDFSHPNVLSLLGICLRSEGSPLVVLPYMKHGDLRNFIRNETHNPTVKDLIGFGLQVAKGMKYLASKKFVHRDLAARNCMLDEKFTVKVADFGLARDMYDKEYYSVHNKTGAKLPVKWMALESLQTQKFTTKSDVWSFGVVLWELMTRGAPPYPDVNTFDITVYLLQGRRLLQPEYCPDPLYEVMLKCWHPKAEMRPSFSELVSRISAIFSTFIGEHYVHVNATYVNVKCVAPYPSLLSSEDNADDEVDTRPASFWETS

Row | Binder | binding result
19 | B19 | binds
20 | B20 | binds
